According to patent US20110097715, “METHOD FOR PURIFYING OR DETECTING A TARGET PROTEIN” (LFB - BIOTECHNOLOGIES, published 2011):

Legend:
[1] = biological target: rabbit plasma-derived factor VII (Oryctolagus cuniculus, UniProt P98139 P98139:40-444); assay: SPR; complete absence of binding at 50-400 nM; same buffer (CaCl2 2 mM); details: tags: American Diagnostica; label: 3'-biotin
Excerpt: (§1) This aptamer is modified at the 3′-end thereof by grafting a biotin. Nucleotide bases in bold (SEQ no 1) are 2′O-methylated, which makes it possible to stabilize the aptamer by making it more resistant to nucleases. The aptamer was then immobilized onto an avidin-containing SA chip (Biacore GE). The aptamer was thus immobilized in an oriented manner through the 3′-end thereof with an immobilization rate of 2700 RU (where 1 RU does approximately correspond to 1 pg of immobilized product per mm²).
Rabbit plasma-derived factor VII (American Diagnostica) was diluted in the same buffer as in Example 1 at concentration levels of 50, 100 200, 400 nM, thereafter was injected under the same conditions as in Example 1 into the same chip containing the immobilized aptamer.

[2] = biological target: human plasma-derived factor VII (HP FVII) (Homo sapiens, UniProt P08709 P08709:61-466); assay: SPR; Hepes 20 mM pH 8, NaCl 50 mM, CaCl2 2 mM, BSA 0.01%; aptamer immobilized via 3'-biotin on SA chip; allosteric binding model; FVII 50-400 nM; details: tags: plasma-derived, purity 99%; label: 3'-biotin
Excerpt: as §1
Some purified, human plasma-derived factor VII (HP FVII, purity: 99%) was diluted in run buffer (Hepes 20 mM pH=8, NaCl 50 mM, CaCl₂ 2 mM and BSA 0.01%) so as to obtain four samples with human plasma-derived factor VII concentration levels of 50, 100, 200 and 400 nM. Each sample was injected sequentially into the same immobilized aptamer-containing chip through a biotin-streptavidin interaction. Controls are obtained by injecting blanks which only contained the run buffer. All injections are performed at a flow rate of 20 μl/min for 120 sec, after injection of the run buffer into the chip at the same flow rate for 240 sec. […] A binding to the immobilized aptamer generates a signal increase expressed in resonance unit (RU) recorded by the device (FIG. 1). […] The modelling of the recorded interactions was made by means of the Biaevaluation software (GE).

Sequence of rabbit plasma-derived factor VII (P98139 40-444, one chain of several): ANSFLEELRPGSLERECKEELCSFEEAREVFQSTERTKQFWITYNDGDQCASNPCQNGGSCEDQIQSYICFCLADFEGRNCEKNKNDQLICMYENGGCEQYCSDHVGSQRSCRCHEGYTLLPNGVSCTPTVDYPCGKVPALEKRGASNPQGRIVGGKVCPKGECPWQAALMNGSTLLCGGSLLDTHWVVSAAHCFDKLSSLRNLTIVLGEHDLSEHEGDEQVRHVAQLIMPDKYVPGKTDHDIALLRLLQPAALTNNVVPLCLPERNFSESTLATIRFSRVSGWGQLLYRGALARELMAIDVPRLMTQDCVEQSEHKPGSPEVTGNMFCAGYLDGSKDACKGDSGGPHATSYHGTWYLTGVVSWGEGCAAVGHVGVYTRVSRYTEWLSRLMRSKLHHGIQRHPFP
Sequence of human plasma-derived factor VII (HP FVII) (P08709 61-466, one chain of several): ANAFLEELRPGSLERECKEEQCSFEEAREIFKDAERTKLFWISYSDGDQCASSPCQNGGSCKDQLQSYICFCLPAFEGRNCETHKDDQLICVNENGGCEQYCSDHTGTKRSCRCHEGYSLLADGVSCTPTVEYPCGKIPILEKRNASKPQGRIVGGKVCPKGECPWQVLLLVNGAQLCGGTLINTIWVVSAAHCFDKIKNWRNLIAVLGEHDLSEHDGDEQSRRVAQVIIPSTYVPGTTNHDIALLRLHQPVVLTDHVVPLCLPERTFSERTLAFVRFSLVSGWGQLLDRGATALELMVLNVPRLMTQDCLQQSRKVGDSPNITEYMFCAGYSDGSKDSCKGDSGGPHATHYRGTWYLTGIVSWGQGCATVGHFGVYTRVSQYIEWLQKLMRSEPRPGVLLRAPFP

B1: anti-human FVII aptamer (SEQ no 1) (ssRNA)
RNA: GGGAGAGAGGAAGAGGGAUGGGAGCCUAUGUAACAGAUGCAGAUCCCUAGUCGUCCCAACACCAUAAC
modifications: 2'-OMe at bases shown in bold in the patent (positions not recoverable from text); 3'-biotin
binding result [1]: no binding | Kd [2]: 1400 nM
